Source: article PMC13090976 (Cell Stress & Chaperones, 2026)

B1: human CHIP-TPR (residues 21-154) [human] / biotin-… [modified: biotin, printed before the first residue (biotin-…); biotin, printed before the first residue (biotin-…)] [human] (parent)
chain 1: EKSPSAQELKEQGNRLFVGRKYPEAAACYGRAITRNPLVAVYYTNRALCYLKMQQHEQALADCRRALELDGQSVKAHFFLGQCQLEMESYDEAIANLQRAYSLAKEQRLNFGDDIPSALRIAKKKRWNSIEERR
chain 2: GSGSGPTIEEVD

Variants of: B1
Assay: biolayer interferometry
Conditions: with biotin-… [modified: biotin, read off a plot

koff [s⁻¹] | kon [M⁻¹ s⁻¹] | Variant
0.0031 | 5800 | chain 1 EKSPSAQELKEQGNRLFVGRKYPEAAACYGRAITRNPLVAVYYTNRALCYLKMQQHEQALADCRRALELDGQSVKAHFFLGQCQLEMESYDEAIANLQRAYSLAKEQRLNFNDDIPSALRIAKKKRWNSIEERR
